The values that follow are results of earlier work, collected in article PMC8476072.

One may read the Kd as the concentration at which binding is half-saturated.

The target of this series is CheZ (Escherichia coli) (UniProt P0A9H9).
Sequence of UniProt P0A9H9 (P0A9H9 whole entry): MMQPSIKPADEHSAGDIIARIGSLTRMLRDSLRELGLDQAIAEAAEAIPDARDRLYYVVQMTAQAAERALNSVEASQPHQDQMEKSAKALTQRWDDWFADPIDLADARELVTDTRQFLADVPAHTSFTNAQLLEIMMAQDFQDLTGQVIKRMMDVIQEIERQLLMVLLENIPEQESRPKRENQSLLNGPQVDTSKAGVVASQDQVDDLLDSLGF

Take CheY (from UniProt P0AE67): the Kd was 8 µM.
